Reference: US20230002478A1

Biological target: biotinylated D614G SARS-CoV-2 spike trimer (SARS-CoV-2) (UniProt P0DTC2)
Assay: AlphaLISA, inhibition of ACE2-muFc / biotinylated spike complex

In the case of “anti-RBD neutralizing monoclonal antibody (human IgG1) from Acro Biosystems (SAD-S35)”, the IC50 is reported as 1.84 nM.
